Source: patent publication US20240190947A1 (BIO TECHNE, published 2024)

Target: T1, SARS-CoV-2 S1 RBD His-tagged protein (SARS-CoV-2, UniProt P0DTC2 319-541)
T1 construct: domain: S1 RBD; also called rSARS-CoV-2 S1 RBD; SARS-CoV2 RBD
Experiment: direct ELISA, HEK293 transfection medium

B1: 70009-2 VHH clone (VHH)
VHH: QLQLVESGGGLVQPGGSLRLSCAASTLTLNSYAIGWFRQAPGKEREAVSCTSSSGDMTYYTNSVKGRFTISRDNAKNTVYLQMSRLKPDDTAVYYCAAVLLEYGYVCSHPNEYDYWGQGTQVTVSS
**Q.** Does B1 bind?
**A.** binds
